Results reported in US20100167997A1, “METHOD FOR STIMULATION COLLAGEN SYNTHESIS AND/OR KGF EXPRESSION” (ATYR PHARMA, INC., priority 2005, published 2010).

What was measured:
collagen [1] = assay: Collagen immunofluorescent staining of wound site in wild-type and AIMP1-deficient mice; assay type: in vivo, mouse; conditions: WT and AIMP1-/- mice; 4 μg applied on wound site twice a day until 3 days after wounding; FIG. 3
Description: By the gene trap method known in the art (Zambrowicz, B. P., et al., Nature 392:608-611, 1998; Kim J Y et al., Proc. Natl. Acad. Sci. USA 99:7912-7916, 2002), a mutation in the AIMP1 gene of a male C57BL6 mouse was induced to prepare a AIMP1 gene deficient homozygous mouse (AIMP1^−/− mouse, Ho) (Park S. G. et al., Am. J. Pathol., in press: 2005). Then, on the back of each of the 8-week-old homozygous mouse and wild-type mouse (AIMP1^+/+ mice, WT), a circular cut-off window with a diameter of 0.5 cm was made with scissors. The wound site was left to stand without dressing. 4 μg of the AIMP1 prepared in Reference Example 1 was dissolved in 5 μl of 20% glycerol-containing PBS and applied on the wound site. The AIMP1 applied twice a day until 3 days after wounding. A control group (AIMP1-untreated group) was treated with 20% glycerol-containing PBS. Then, the tissue of the wound site was isolated using scissors and fixed in 4% paraformaldehyde overnight. The fixed tissue was washed with PBS, incubated in 30% sucrose solution for 4 hours, and then mixed with an OCT (optimal cutting temperature) compound and frozen at −70° C.
6 μm of the frozen section was attached to a silane-coated slide and washed with PBS. Then, the slide was blocked with PBS containing 0.1% tween 20 and 1% non-fat dry milk and allowed to react with an anti-collagen I antibody (Abcam) at 37° C. for 2 hours. […]

collagen [2] = assay: Western blot analysis of collagen (anti-collagen I antibody) in foreskin fibroblast cells; assay type: cell-based
Experimental: (§1) In order to measure the collagen transcript RNA induced by the AIMP1, foreskin fibroblast cells (5×10^4 cells/well; obtained from MTT; accession number: MC1232) were cultured in 10% serum-containing DMEM medium on a 6-well plate for 12 hours and then cultured in serum-free medium for about 3 hours. Next, the cultured cells were treated with the AIMP1 (SEQ ID NO: 1) at varying AIMP1 concentrations of 0, 20, 50, 100 and 200 nM for 6 hours (RT-PCR) or 12 hours (Western blot).
The cells treated with the AIMP1 at varying AIMP1 concentrations in Example <1-1> were collected and lysed in a cell lysis buffer (50 mM HEPES, pH 7.5, 150 mM NaCl, 10% glycerol, 5 mM EGTA, 1 mM sodium orthovanadate, 10 mM NaF, 12 mM b-glycerophosphate, 1 mM DTT, 1 mM PMSF, […] aprotinin, and 1% NP40). Lysed cells were centrifuged at 26,000 g for 15 minutes and the cell extract was isolated. 30 μg of the cell extract was separated by 8% SDS-PAGE and immunoblotted with an anti-collagen I antibody (Abcam) according to any conventional method known in the art. As a control group, an anti-tubulin antibody (Sigma) was used.
(§2) Foreskin fibroblast cells (5×10^4 cells/well) were cultured in 10% serum-containing DMEM medium on a 6-well plate for 12 hours, and then, cultured in serum-free medium for about 3 hours. Next, the cultured cells were treated with 100 nM of the AIMP1 at various time intervals (0, 2, 4, 6, 12 and 24 hours).
Foreskin fibroblast cells (5×10^5 cells/well) were cultured in 10% serum-containing DMEM medium on a 6-well plate for 48 hours and then cultured in serum-free medium for about 3 hours. Next, the cultured cells were treated with each of the AIMP1 (SEQ ID NO: 1) and the AIMP1 N-terminal fragments (SEQ ID NOS: 2 and 12) at a concentration of 200 nM for 12 hours. As a control group, cells without treatment were used.
The cells treated with each of the AIMP1 and its N-terminal fragments and the control cells were collected at the indicated time and subjected to Western blot analysis in the same manner as in Example <1-3>.

KGF = assay: RT-PCR analysis of KGF expression in foreskin fibroblast cells; assay type: cell-based; conditions: 100 nM for 2 hours, FIG. 4
Experimental: From foreskin fibroblast cells treated with 100 nM of the AIMP1 for 2 hours, the total RNA was extracted in the same manner as described in Example <1-2>. Then, the extract was amplified by RT-PCR using KGF-specific primers (SEQ ID NO: 8 and SEQ ID NO: 9). The control groups were amplified using cyclin D-specific primers (SEQ ID NO: 10 and SEQ ID NO: 11) and GADPH-specific primers (SEQ ID NO: 6 and SEQ ID NO: 7), respectively. The PCR reaction consisted of: predenaturation of the template DNA at 95° C. for 5 min, followed by 25 cycles of 1 min at 95° C., 1 min at 52° C. and 1 min at 72° C., and then, a final extension for 5 min at 72° C.
(§3) Foreskin fibroblast cells (5×10^4 cells/well) were cultured in 10% serum-containing DMEM medium on a 6-well plate about 12 hours, and then, cultured in serum-free medium for about 3 hours. Then, the cultured cells were treated with 100 nM of the N-terminal and C-terminal fragments of the AIMP1 prepared in Reference Example 1, at various time intervals of 0, 1, 2, 4, and 6 hours. Then, RT-PCR was performed in the same manner as in Example <1-2> using each of collagen-specific primers (SEQ ID NO: 4 and SEQ ID NO: 5), KGF-specific primers (SEQ ID NO: 8 and SEQ ID NO: 9) and GADPH-specific primers (SEQ ID NO: 6 and SEQ ID NO: 7).
(§4) Foreskin fibroblast cells (5×10^4 cells/well) were cultured in 10% serum-containing DMEM medium on a 6-well plate for 12 hours and then cultured in serum-free medium for about 3 hours. Next, the cultured cells were treated with each of the N-terminal fragments (SEQ ID NOS: 12, 13 and 14) and C-terminal fragment (SEQ ID NO: 15) of AIMP1 prepared in Reference Example 2 at an concentration of 100 nM for 2 hours and 6 hours, respectively. The treated cells were subjected to RT-PCR using collagen-specific primers (SEQ ID NOS: 4 and 5), KGF-specific primers (SEQ ID NOS: 8 and 9) and GADPH-specific primers (SEQ ID NOS: 6 and 7) in the same manner as in Example <1-2>.

collagen [3] = assay: RT-PCR analysis of collagen transcript in foreskin fibroblast cells; assay type: cell-based
Experimental: as §1
The cells treated with the AIMP1 at varying concentrations in Example <1-1> were collected and dissolved in TRIzol (invitrogen). 10% by weight of chloroform was added to the cell lysate, and mixed well. The mixture was centrifuged at 12,000 g for 15 minutes and the supernatant was collected. Ethanol was added to the collected supernatant to a final concentration of 70%. Then, the supernant was centrifuged at 26,000 g for 5 minutes and the precipitant was collected. The precipitant was dried and dissolved in sterilized distilled water, and the total RNA was extracted. 3 μg of the total RNA was used to prepare cDNA. Then, the cDNA was amplified by PCR using collagen-specific primers (SEQ ID NO: 4 and SEQ ID NO: 5). At this time, for use as a control group, the cDNA was subjected to PCR using GADPH-specific primers (SEQ ID NO: 6 and SEQ ID NO: 7). The PCR reaction consisted of: pre-denaturation of the template DNA at 95° C. for 5 min, followed by 25 cycles of 1 min at 95° C., 1 min at 52° C. and 1 min at 72° C., and then a final extension for 5 min at 72° C.
as §2, §3, §4

B1: AIMP1: ARS-interacting multi-functional protein 1, a protein consisting of 312 amino acids (SEQ ID NO: 1) (protein, listed as Homo sapiens)
chain: MANNDAVLKRLEQKGAEADQIIEYLKQQVSLLKEKAILQATLREEKKLRVENAKLKKEIEELKQELIQAEIQNGVKQIAFPSGTPLHANSMVSENVIQSTAVTTVSSGTKEQIKGGTGDEKKAKEKIEKKGEKKEKKQQSIAGSADSKPIDVSRLDLRIGCIITARKHPDADSLYVEEVDVGEIAPRTVVSGLVNHVPLEQMQNRMVILLCNLKPAKMRGVLSQAMVMCASSPEKIEILAPPNGSVPGDRITFDAFPGEPDKELNPKKKIWEQIQPDLHTNDECVATYKGVPFEVKGKGVCRAQTMSNSGIK
- amount of collagen at wound site (immunofluorescence) (collagen [1]): further increased
- synthesis of collagen, protein levels (Western blot), varying concentrations (collagen [2]; 0, 20, 50, 100 and 200 nM for 12 hours, FIG. 1 bottom): stimulated the synthesis of collagen in fibroblast cells in dose-dependent manners
- synthesis of collagen, protein levels (Western blot), various time intervals (collagen [2]; 100 nM, 0, 2, 4, 6, 12 and 24 hours, FIG. 2 bottom): stimulated the synthesis of collagen
- synthesis of collagen, protein levels (Western blot), compared with cells without treatment (collagen [2]; 200 nM for 12 hours, FIG. 7): more stimulated
- expression of KGF (RT-PCR) (KGF): increased
- synthesis of collagen (RT-PCR), varying concentrations (collagen [3]; 0, 20, 50, 100 and 200 nM for 6 hours, FIG. 1 upper): stimulated the synthesis of collagen in fibroblast cells in dose-dependent manners
- synthesis of collagen (RT-PCR), various time intervals (collagen [3]; 100 nM, 0, 2, 4, 6, 12 and 24 hours, FIG. 2 upper): stimulated the synthesis of collagen in fibroblast cells in time-dependent manners
